Laboratory results taken from patent US20250304640A1 (ORIKINE BIO SL, published 2025).
Like-named read-outs stand apart in the source and are kept apart here. One block for each binder: values may come before it.

Experiments:
Assay in all cases: cell-based or functional assay
[1] = target: T1, IL-10 receptor (IL-10R: IL10RA and IL10RB) on HEK-Blue IL-10 reporter cells (UniProt Q13651 22-578; Q08334 20-325, limits assumed)
T1 sequence (looked up) 1: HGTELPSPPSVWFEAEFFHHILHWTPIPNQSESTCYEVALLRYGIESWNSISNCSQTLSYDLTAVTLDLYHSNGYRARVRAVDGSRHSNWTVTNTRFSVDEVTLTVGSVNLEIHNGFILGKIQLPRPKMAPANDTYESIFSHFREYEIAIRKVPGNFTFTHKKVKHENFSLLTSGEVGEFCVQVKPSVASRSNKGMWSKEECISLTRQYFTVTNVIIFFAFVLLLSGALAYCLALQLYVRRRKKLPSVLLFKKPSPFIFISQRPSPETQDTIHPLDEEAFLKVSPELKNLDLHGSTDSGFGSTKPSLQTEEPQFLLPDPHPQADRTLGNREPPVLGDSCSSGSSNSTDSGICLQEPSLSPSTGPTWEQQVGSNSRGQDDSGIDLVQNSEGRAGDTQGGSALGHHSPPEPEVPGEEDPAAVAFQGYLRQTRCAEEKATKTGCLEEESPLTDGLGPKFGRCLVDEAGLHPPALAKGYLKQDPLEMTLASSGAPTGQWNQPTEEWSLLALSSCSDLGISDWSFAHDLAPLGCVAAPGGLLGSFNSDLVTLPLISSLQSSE
T1 sequence (looked up) 2: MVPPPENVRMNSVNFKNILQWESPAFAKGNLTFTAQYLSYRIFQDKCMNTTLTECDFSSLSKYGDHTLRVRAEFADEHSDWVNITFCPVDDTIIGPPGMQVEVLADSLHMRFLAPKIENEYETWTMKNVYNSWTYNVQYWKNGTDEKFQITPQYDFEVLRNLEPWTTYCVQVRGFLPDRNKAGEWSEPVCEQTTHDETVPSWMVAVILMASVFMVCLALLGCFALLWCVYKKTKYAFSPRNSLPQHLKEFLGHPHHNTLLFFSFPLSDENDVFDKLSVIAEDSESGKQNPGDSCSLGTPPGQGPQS

[2] = target: T2, CSF1 receptor (CSF1R) (UniProt P07333 20-972, limits assumed)
T2 sequence (P07333 20-972 limits assumed): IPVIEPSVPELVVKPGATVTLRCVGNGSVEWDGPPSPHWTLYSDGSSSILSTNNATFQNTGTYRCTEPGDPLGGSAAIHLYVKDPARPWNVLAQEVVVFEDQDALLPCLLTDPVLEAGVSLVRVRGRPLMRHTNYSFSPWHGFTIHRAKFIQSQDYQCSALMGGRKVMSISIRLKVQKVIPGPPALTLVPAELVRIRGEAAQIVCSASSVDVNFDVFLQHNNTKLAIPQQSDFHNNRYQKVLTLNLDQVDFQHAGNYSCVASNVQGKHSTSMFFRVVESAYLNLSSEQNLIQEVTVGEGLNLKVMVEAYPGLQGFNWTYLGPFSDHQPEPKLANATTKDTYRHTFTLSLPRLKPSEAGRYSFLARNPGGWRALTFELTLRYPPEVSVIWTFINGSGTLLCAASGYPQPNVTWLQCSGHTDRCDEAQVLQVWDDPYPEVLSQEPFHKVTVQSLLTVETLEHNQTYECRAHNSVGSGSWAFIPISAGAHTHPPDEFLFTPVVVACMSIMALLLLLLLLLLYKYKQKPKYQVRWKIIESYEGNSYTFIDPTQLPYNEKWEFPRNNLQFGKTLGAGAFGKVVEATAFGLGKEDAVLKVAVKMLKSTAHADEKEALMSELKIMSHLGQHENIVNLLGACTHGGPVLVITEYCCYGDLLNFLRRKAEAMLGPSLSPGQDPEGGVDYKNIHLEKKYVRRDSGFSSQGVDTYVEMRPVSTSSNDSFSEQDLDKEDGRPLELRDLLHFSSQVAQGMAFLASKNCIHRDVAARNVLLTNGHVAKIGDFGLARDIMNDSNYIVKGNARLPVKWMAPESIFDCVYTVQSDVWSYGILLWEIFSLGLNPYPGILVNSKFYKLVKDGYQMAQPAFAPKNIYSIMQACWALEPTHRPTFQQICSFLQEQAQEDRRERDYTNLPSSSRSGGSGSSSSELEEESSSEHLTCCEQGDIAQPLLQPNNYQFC

[3] = target: T1, IL-10 receptor (IL-10R: IL10RA and …); remark: listed apart in the source
[4] = target: T2, CSF1 receptor (CSF1R); remark: listed apart in the source
[5] = target: T1, IL-10 receptor (IL-10R: IL10RA and …); remark: listed apart in the source

IL-10 EC-50, HEK-Blue IL-10 reporter cells [1]: 1.16e-09
CSF1 EC-50, HEK293 CSF1R/SRE reporter [2]: 7.81e-10
B4: CSF1-IL10-HiBit (ligand)
chain: EEVSEYCSHMIGSGHLQSLQRLIDSQMETSCQITFEFVDQEQLKDPVCYLKKAFLLVQDIMEDTMRFRDNTPNAIAIVQLQELSLRLKSCFTKDYEEHDKACVRTFYETPLQLLEKVKNVFNETKNLLDKDWNIFSKNCNNSFAECSSQDGGGGGSGGSGGSGGSGGSGGSGGSGGSGGGSPGQGTQSENSCTHFPGNLPNMLRDLRDAFSRVKTFFQMKDQLDNLLLKESLLEDFKGYLGCQALSEMIQFYLEEVMPQAENQDPDIKAHVNSLGENLKTLRLRLRRCHRFLPCENKSKAVEQVKNAFNKLQEKGIYKAMSEFDIFINYIEAYMTMKIRNGGVSGWRLFKKIS

EC-50 for CSF1 activity, HEK293 CSF1R/SRE reporter [4]: 5.5e-10
EC-50 for IL10 activity, HEK-Blue IL-10 reporter cells [5]: 2.35e-10
B6: CSF1-30AA-IL10-HiBit (ligand)
chain: EEVSEYCSHMIGSGHLQSLQRLIDSQMETSCQITFEFVDQEQLKDPVCYLKKAFLLVQDIMEDTMRFRDNTPNAIAIVQLQELSLRLKSCFTKDYEEHDKACVRTFYETPLQLLEKVKNVFNETKNLLDKDWNIFSKNCNNSFAECSSQDGGGGGSGGSGGSGGSGGSGGSGGSGGSGGGRASPGQGTQSENSCTHFPGNLPNMLRDLRDAFSRVKTFFQMKDQLDNLLLKESLLEDFKGYLGCQALSEMIQFYLEEVMPQAENQDPDIKAHVNSLGENLKTLRLRLRRCHRFLPCENKSKAVEQVKNAFNKLQEKGIYKAMSEFDIFINYIEAYMTMKIRNGGVSGWRLFKKIS

EC-50 for CSF1 activity, HEK293 CSF1R/SRE reporter [4]: 1.19e-09
EC-50 for IL10 activity, HEK-Blue IL-10 reporter cells [5]: 2.6e-10
B8: CSF1-15AA-Foldikine10-HiBit (ligand)
chain: EEVSEYCSHMIGSGHLQSLQRLIDSQMETSCQITFEFVDQEQLKDPVCYLKKAFLLVQDIMEDTMRFRDNTPNAIAIVQLQELSLRLKSCFTKDYEEHDKACVRTFYETPLQLLEKVKNVFNETKNLLDKDWNIFSKNCNNSFAECSSQDGGSGGSGGSGGSGGGMTQSENSCTHFPGNLPNMLRDLRDAFSRVKTFFQMKDQLDNLLLKESLLEDFKGYLGCQALSEMIQFYLEEVMPQAENQEPDIKAHVNSLGENLKTLRLRLRRCHRFLPCENKSKAVEQVKNAFNKLQEKGIYKAMSEFDIFINYIEAYMTMNNGGLDYLPNMLRDLRDAFSRVKTFFQMKDQLDNLLLKESLLEDFKGYLGCQALSEMIQFYLEEVMPQAENQDPDIKAHVNSLGENLKTLRLRLRRNHRFLPCENKSKAVEQVKNAFNKLQEKGIYKAMSEFDIFINYIEAYMTMKIRNGGVSGWRLFKKIS

IL-10 EC-50, HEK-Blue IL-10 reporter cells [1]: 8e-10
B11: IL10-HiBit (ligand)
chain: SPGQGTQSENSCTHFPGNLPNMLRDLRDAFSRVKTFFQMKDQLDNLLLKESLLEDFKGYLGCQALSEMIQFYLEEVMPQAENQDPDIKAHVNSLGENLKTLRLRLRRCHRFLPCENKSKAVEQVKNAFNKLQEKGIYKAMSEFDIFINYIEAYMTMKIRNGGVSGWRLFKKIS

The next lines start with the binder.

B1: IL-10-CSF1-HiBit (ligand)
chain: SPGQGTQSENSCTHFPGNLPNMLRDLRDAFSRVKTFFQMKDQLDNLLLKESLLEDFKGYLGCQALSEMIQFYLEEVMPQAENQDPDIKAHVNSLGENLKTLRLRLRRCHRFLPCENKSKAVEQVKNAFNKLQEKGIYKAMSEFDIFINYIEAYMTMKIRNGGGGGSGGSGGSGGSGGSGGSGGSGGSGGGEEVSEYCSHMIGSGHLQSLQRLIDSQMETSCQITFEFVDQEQLKDPVCYLKKAFLLVQDIMEDTMRFRDNTPNAIAIVQLQELSLRLKSCFTKDYEEHDKACVRTFYETPLQLLEKVKNVFNETKNLLDKDWNIFSKNCNNSFAECSSQDGGVSGWRLFKKIS
IL-10 EC-50, HEK-Blue IL-10 reporter cells [1]: 5.9e-09
CSF1 EC-50, HEK293 CSF1R/SRE reporter [2]: 4.64e-09

B2: CSF1-Foldikine10_cut116-HiBit (ligand)
chain: EEVSEYCSHMIGSGHLQSLQRLIDSQMETSCQITFEFVDQEQLKDPVCYLKKAFLLVQDIMEDTMRFRDNTPNAIAIVQLQELSLRLKSCFTKDYEEHDKACVRTFYETPLQLLEKVKNVFNETKNLLDKDWNIFSKNCNNSFAECSSQDGGGGGSGGSGGSGGSGGSGGSGGSGGSGGGMTQSENSCTHFPGNLPNMLRDLRDAFSRVKTFFQMKDQLDNLLLKESLLEDFKGYLGCQALSEMIQFYLEEVMPQAENQEPDIKAHVNSLGENLKTLRLRLRRCHRFLPCENKSKAVEQVKNAFNKLQEKGIYKAMSEFDIFINYIEAYMTMNNGGLDYLPNMLRDLRDAFSRVKTFFQMKDQLDNLLLKESLLEDFKGYLGCQALSEMIQFYLEEVMPQAENQDPDIKAHVNSLGENLKTLRLRLRRNHRFLPCENKSKAVEQVKNAFNKLQEKGIYKAMSEFDIFINYIEAYMTMKIRNGGVSGWRLFKKIS
IL-10 EC-50, HEK-Blue IL-10 reporter cells [3]: 3.06e-10

B3: CSF1-25AA-Foldikine10-HiBit (ligand)
chain: B2 chain
EC-50 for CSF1 activity, HEK293 CSF1R/SRE reporter [4]: 1.64e-09
EC-50 for IL10 activity, HEK-Blue IL-10 reporter cells [5]: 3.61e-10

B5: CSF1-35AA-Foldikine10-HiBit (ligand)
chain: EEVSEYCSHMIGSGHLQSLQRLIDSQMETSCQITFEFVDQEQLKDPVCYLKKAFLLVQDIMEDTMRFRDNTPNAIAIVQLQELSLRLKSCFTKDYEEHDKACVRTFYETPLQLLEKVKNVFNETKNLLDKDWNIFSKNCNNSFAECSSQDGGGGGSGGGGSGGSGGSGGSGGSGGSGGSGGSGGGMTQSENSCTHFPGNLPNMLRDLRDAFSRVKTFFQMKDQLDNLLLKESLLEDFKGYLGCQALSEMIQFYLEEVMPQAENQEPDIKAHVNSLGENLKTLRLRLRRCHRFLPCENKSKAVEQVKNAFNKLQEKGIYKAMSEFDIFINYIEAYMTMNNGGLDYLPNMLRDLRDAFSRVKTFFQMKDQLDNLLLKESLLEDFKGYLGCQALSEMIQFYLEEVMPQAENQDPDIKAHVNSLGENLKTLRLRLRRNHRFLPCENKSKAVEQVKNAFNKLQEKGIYKAMSEFDIFINYIEAYMTMKIRNGGVSGWRLFKKIS
EC-50 for CSF1 activity, HEK293 CSF1R/SRE reporter [4]: 1.83e-09
EC-50 for IL10 activity, HEK-Blue IL-10 reporter cells [5]: 3.18e-10

B7: CSF1-35AA-IL10-HiBit (ligand)
chain: EEVSEYCSHMIGSGHLQSLQRLIDSQMETSCQITFEFVDQEQLKDPVCYLKKAFLLVQDIMEDTMRFRDNTPNAIAIVQLQELSLRLKSCFTKDYEEHDKACVRTFYETPLQLLEKVKNVFNETKNLLDKDWNIFSKNCNNSFAECSSQDGGGGGSGGGGSGGSGGSGGSGGSGGSGGSGGSGGGRASPGQGTQSENSCTHFPGNLPNMLRDLRDAFSRVKTFFQMKDQLDNLLLKESLLEDFKGYLGCQALSEMIQFYLEEVMPQAENQDPDIKAHVNSLGENLKTLRLRLRRCHRFLPCENKSKAVEQVKNAFNKLQEKGIYKAMSEFDIFINYIEAYMTMKIRNGGVSGWRLFKKIS
EC-50 for CSF1 activity, HEK293 CSF1R/SRE reporter [4]: 6.5e-10
EC-50 for IL10 activity, HEK-Blue IL-10 reporter cells [5]: 1.9e-10

B9: Foldikine10-CSF1-HiBit (ligand)
chain: MTQSENSCTHFPGNLPNMLRDLRDAFSRVKTFFQMKDQLDNLLLKESLLEDFKGYLGCQALSEMIQFYLEEVMPQAENQEPDIKAHVNSLGENLKTLRLRLRRCHRFLPCENKSKAVEQVKNAFNKLQEKGIYKAMSEFDIFINYIEAYMTMNNGGLDYLPNMLRDLRDAFSRVKTFFQMKDQLDNLLLKESLLEDFKGYLGCQALSEMIQFYLEEVMPQAENQDPDIKAHVNSLGENLKTLRLRLRRNHRFLPCENKSKAVEQVKNAFNKLQEKGIYKAMSEFDIFINYIEAYMTMKIRNGGGGGSGGSGGSGGSGGSGGSGGSGGSGGGEEVSEYCSHMIGSGHLQSLQRLIDSQMETSCQITFEFVDQEQLKDPVCYLKKAFLLVQDIMEDTMRFRDNTPNAIAIVQLQELSLRLKSCFTKDYEEHDKACVRTFYETPLQLLEKVKNVFNETKNLLDKDWNIFSKNCNNSFAECSSQDGGVSGWRLFKKIS
IL-10 EC-50, HEK-Blue IL-10 reporter cells [1]: 1.36e-09
CSF1 EC-50, HEK293 CSF1R/SRE reporter [2]: 3.18e-09

B10: foldikine10-HiBit (ligand)
chain: MTQSENSCTHFPGNLPNMLRDLRDAFSRVKTFFQMKDQLDNLLLKESLLEDFKGYLGCQALSEMIQFYLEEVMPQAENQEPDIKAHVNSLGENLKTLRLRLRRCHRFLPCENKSKAVEQVKNAFNKLQEKGIYKAMSEFDIFINYIEAYMTMNNGGLDYLPNMLRDLRDAFSRVKTFFQMKDQLDNLLLKESLLEDFKGYLGCQALSEMIQFYLEEVMPQAENQDPDIKAHVNSLGENLKTLRLRLRRNHRFLPCENKSKAVEQVKNAFNKLQEKGIYKAMSEFDIFINYIEAYMTMKIRNGGVSGWRLFKKIS
IL-10 EC-50, HEK-Blue IL-10 reporter cells [1]: 2.14e-10
